{"source": "patent US7919300B2", "about": "“Glucose isomerase mutants” (priority 2004, dated 2011)", "substrate": "OC[C@H]1OC(O)[C@H](O)[C@@H](O)[C@@H]1O", "assay": "Measurement of kinetic parameters of glucose isomerase mutant MGI-4 with D-glucose as substrate", "assay_type": "biochemical, Thermoanaerobacterium saccharolyticum", "settings": "pH 6.5, 20 mM sodium phosphate, 250 μM CoCl2, 5 mM MgCl2, 10 minutes", "procedure": "Fragment AFSR was amplified using primer pair 182AF (see Table 1 below) and 187SR (see Table 1) on the following condition: 20 mM Tris-HCl (pH 8.8), 10 mM KCl, 10 mM (NH4)2SO4, 2 mM MgSO4, 0.1% Triton X-100, 0.4 μM Primer 182AF and 0.4 μM Primer 187SR, 50 μM DATP, 50 μM dTTP, 50 μM dCTP, 50 μM dGTP, 1.5 U Pfu DNA polymerase, 20 ng pGEMT-TS, and the total volume was adjusted to 50 μl with distilled water. The PCR amplification program for the reaction was: 95° C., 3 min; then 35 cycles of 95° C., 50 seconds, 52° C., 30 seconds, 72° C., 180 seconds; and with an additional 5 minutes at 72° C. at the end of the reaction. The PCR product, fragment AFSR, was separated on 1% agarose gel and recovered using QIAquick Gel Extraction Kit (QIAGEN, German). Fragment SFQR was amplified using primer pair 187SF (Example 4) and 299QR (Example 5) on the following condition: 20 mM Tris-HCl (pH 8.8), 10 mM KCl, 10 mM (NH4)2SO4, 2 mM MgSO4, 0.1% Triton X-100, 0.4 μM Primer 187SF and 0.4 μM Primer 299QR, 50 μM dATP, 50 μM dTTP, 50 μM dCTP, 50 μM dGTP, 1.5 U Pfu DNA polymerase, 20 ng pGEMT-TS, and the total volume was adjusted to 50 μl with distilled water. The PCR amplification program for the reaction was: 95° C., 3 min; then 35 cycles of 95° C., 50 seconds, 52° C., 30 seconds, 72° C., 180 seconds; and with an additional 5 minutes at 72° C. at the end of the reaction. The PCR product, fragment SFQR, was separated on 1% agarose gel and recovered using QIAquick Gel Extraction Kit (QIAGEN, German). The full-length glucose isomerase gene was then amplified on the following condition: 20 mM Tris-HCl (pH 8.8), 10 mM KCl, 10 mM (NH4)2SO4, 2 mM MgSO4, 0.1% Triton X-100, 0.4 μM Primer T1 and 0.4 μM Primer T2, 50 μM dATP, 50 μM dTTP, 50 μM dCTP, 50 μM dGTP, 1.5 U Pfu DNA polymerase, 20 ng fragment T1FR (Example 2), 20 ng fragment FFAR (Example 6), 20 ng […], 20 ng fragment SFQR and 20 ng fragment QFT2 (Example 5), and the total volume was adjusted to 50 μl with distilled water. The PCR amplification program for the reaction was: 95° C., 3 min; then 35 cycles of 95° C., 50 seconds, 52° C., 30 seconds, 72° C., 180 seconds; and with an additional 5 minutes at 72° C. at the end of the reaction. The full-length mutant MGI-4 was separated on 1% agarose gel and recovered using QIAquick Gel Extraction Kit (QIAGEN, German). Plasmid pGEMT-MGI-4, generated after ligation between MGI-4 and pGEMT-Easy, was transformed into competent E. coli HB101 and the transformants were screened for clones of glucose isomerase activity on 1% MacConkey agar plates containing 1% D-xylose and 50 mg/L ampicillin. pGEMT-MGI-4 DNA was then isolated from the positive clones and sequenced. The sequencing results confirmed that the desired site-directed mutations were correctly introduced. Its amino acid sequence was shown as SEQ ID NO.: 32 (see the Sequence Listing below).\nThe isolation and purification of glucose isomerase mutant MGI-4 were as described in Example 9, except the plasmid used was pGEMT-MGI-4. The partially purified enzyme was shown on FIG. 1. Other glucose isomerase mutants were also isolated and purified as described in Example 9."}
{"protein": "Thermoanaerobacterium saccharolyticum glucose isomerase mutant MGI-4 (W139F/R182A/F187S/T299Q), SEQ ID NO.: 32 (Thermoanaerobacterium saccharolyticum; … (protein) MNKYFENVSKIKYEGPKSNNPYSFKFYNPEEVIDGKTMEEHLRFSIAYWHTFTADGTDQFGKATMQRPWNHYTDPMDIAKARVEAAFEFFDKINAPFFCFHDRDIAPEGDTLRETNKNLDTIVAMIKDYLKTSKTKVLFGTANLFSNPRFVHGASTSCNADVFAYSAAQVKKALEITKELGAENYVSWGGREGYETLLNTDMELELDNFARFLHMAVDYAKEIGFEGQFLIEPKPKEPTKHQYDFDVANVLAFLRKYDLDKYFKVNIEANHATLAFHDFQHELRYARINGVLGSIDANQGDMLLGWDTDQFPTDIRMTTLAMYEVIKMGGFDKGGLNFDAKVRRASFEPEDLFLGHIAGMDAFAKGFKVAYKLVKDGVFDKFIEERYASYKEGIGADIVSGKADFKSLEKYALEHSQIVNKSGRQELLESILNQYLFAE", "values": [{"measurement": "Km", "setting": "other: MGI-4, 65° C., 65.0 °C", "result": 27.9, "unit": "mM"}, {"measurement": "kcat", "setting": "other: MGI-4, 65° C., 65.0 °C", "result": 1009.0, "unit": "min⁻¹"}, {"measurement": "kcat/Km", "setting": "other: MGI-4, 65° C., 65.0 °C", "result": 36.1, "unit": "mM⁻¹ min⁻¹"}, {"measurement": "Km", "setting": "other: MGI-4, 80° C., 80.0 °C", "result": 51.3, "unit": "mM"}, {"measurement": "kcat", "setting": "other: MGI-4, 80° C., 80.0 °C", "result": 2981.1, "unit": "min⁻¹"}, {"measurement": "kcat/Km", "setting": "other: MGI-4, 80° C., 80.0 °C", "result": 58.1, "unit": "mM⁻¹ min⁻¹"}]}
